Assays:
[1] = molecular target: Env UG037.8 on 293 cells (HIV-1 isolate UG037.8, clade A); test: cell-based or functional assay
[2] = molecular target: Env HT593.1 on 293 cells (HIV-1 isolate HT593.1, clade B); test: cell-based or functional assay
[3] = molecular target: Env NL4-3 on 293 cells (HIV-1 NL4-3, clade B); test: cell-based or functional assay
[4] = molecular target: Env BR029.2 on 293 cells (HIV-1 isolate BR029.2, clade F); test: cell-based or functional assay
[5] = molecular target: Env US005.11 on 293 cells (HIV-1 isolate US005.11, clade B); test: cell-based or functional assay
[6] = molecular target: Env RW020.5 on 293 cells (HIV-1 isolate RW020.5, clade A); test: cell-based or functional assay
[7] = molecular target: Env UG975.10 on 293 cells (HIV-1 isolate UG975.10, clade G); test: cell-based or functional assay
[8] = molecular target: Env TH022.4 on 293 cells (HIV-1 isolate TH022.4, clade EA); test: cell-based or functional assay
[9] = molecular target: Env US715.6 on 293 cells (HIV-1 isolate US715.6, clade B); test: cell-based or functional assay
[10] = molecular target: Env 89.6 on 293 cells (HIV-1 isolate 89.6, clade B); test: cell-based or functional assay
[11] = molecular target: Env BR025.9 on 293 cells (HIV-1 isolate BR025.9, clade C); test: cell-based or functional assay
[12] = molecular target: Env clone R2 on pseudotype virus (HIV-1 isolate R2, Clade B); test: cell-based or functional assay
[13] = molecular target: Env clone GX-E14 on pseudotype virus (HIV-1 isolate GX-E14, Clade E); test: cell-based or functional assay
[14] = molecular target: Env clone VI1399 on pseudotype virus (HIV-1 isolate VI1399); test: cell-based or functional assay
[15] = molecular target: Env clone MN-TCLA on pseudotype virus (HIV-1 isolate MN-TCLA) (UniProt P05877); test: cell-based or functional assay
[16] = molecular target: Env clone VI1273 on pseudotype virus (HIV-1 isolate VI1273); test: cell-based or functional assay
[17] = molecular target: Env clone GX-C44 on pseudotype virus (HIV-1 isolate GX-C44, Clade C); test: cell-based or functional assay
[18] = molecular target: Env clone Z2Z6 on pseudotype virus (HIV-1 isolate Z2Z6, Clade D); test: cell-based or functional assay
[19] = molecular target: Env clone TH966 on pseudotype virus (HIV-1 isolate TH966); test: cell-based or functional assay
[20] = molecular target: gp120 JR-FL (HIV-1 isolate JR-FL); test: ELISA, antigen coated on plate, soluble Fab titrated, Langmuir fit
[21] = molecular target: gp120 89.6 (HIV-1 isolate 89.6); test: as above
[22] = molecular target: sCD4-gp120 89.6 complex (HIV-1 isolate 89.6) (UniProt P01730); test: as above
[23] = molecular target: Env clone 92RW020.5 on pseudotype virus (HIV-1 isolate 92RW020.5, Clade A); test: cell-based or functional assay
[24] = molecular target: Env clone P37 on pseudotype virus (HIV-1 isolate P37); test: cell-based or functional assay
[25] = molecular target: Env clone V5 on pseudotype virus (HIV-1 isolate V5); test: cell-based or functional assay
[26] = molecular target: Env clone VI14004 on pseudotype virus (HIV-1 isolate VI14004, Clade F); test: cell-based or functional assay
[27] = molecular target: gp120 IIIB (HIV-1 isolate IIIB) (UniProt P04578); test: ELISA, antigen coated on plate, soluble Fab titrated, Langmuir fit
[28] = molecular target: gp140 89.6 (HIV-1 isolate 89.6); test: ELISA, soluble Fab titrated on Env (direct or D7324 capture format not specified)
[29] = molecular target: gp120 IIIB (HIV-1 isolate IIIB) (UniProt P04578); test: ELISA, soluble Fab titrated on Env (direct or D7324 capture format not specified); IIIB* is gp120

Sequence of UniProt P05877 (P05877 32-856 limits assumed): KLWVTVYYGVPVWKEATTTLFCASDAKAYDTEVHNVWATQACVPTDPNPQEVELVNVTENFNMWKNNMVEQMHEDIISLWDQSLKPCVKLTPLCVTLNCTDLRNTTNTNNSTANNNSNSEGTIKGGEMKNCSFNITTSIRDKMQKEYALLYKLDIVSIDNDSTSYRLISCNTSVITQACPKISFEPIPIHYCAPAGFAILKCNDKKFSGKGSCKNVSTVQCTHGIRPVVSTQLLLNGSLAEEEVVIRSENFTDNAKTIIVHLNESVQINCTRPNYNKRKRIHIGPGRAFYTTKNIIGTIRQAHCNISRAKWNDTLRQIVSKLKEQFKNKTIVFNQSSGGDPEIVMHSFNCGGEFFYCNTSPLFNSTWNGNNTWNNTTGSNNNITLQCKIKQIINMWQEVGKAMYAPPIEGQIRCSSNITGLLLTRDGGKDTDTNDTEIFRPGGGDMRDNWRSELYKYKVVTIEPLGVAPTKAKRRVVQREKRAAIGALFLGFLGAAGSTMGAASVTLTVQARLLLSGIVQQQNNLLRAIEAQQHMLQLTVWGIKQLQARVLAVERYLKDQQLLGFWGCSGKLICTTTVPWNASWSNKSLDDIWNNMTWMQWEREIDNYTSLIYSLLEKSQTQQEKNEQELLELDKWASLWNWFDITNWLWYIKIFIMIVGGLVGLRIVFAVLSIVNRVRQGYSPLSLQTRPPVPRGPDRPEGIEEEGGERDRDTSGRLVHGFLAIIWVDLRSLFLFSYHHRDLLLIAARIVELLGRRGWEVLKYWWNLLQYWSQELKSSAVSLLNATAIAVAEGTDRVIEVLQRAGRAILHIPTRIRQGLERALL

| Substance | % of fusion inhibition, cell-cell fusion assay, Fab at 50 µg/ml [1] | % of fusion inhibition, cell-cell fusion assay, Fab at 50 µg/ml [2] | % of fusion inhibition, cell-cell fusion assay, Fab at 50 µg/ml [3] | % of fusion inhibition, cell-cell fusion assay, Fab at 50 µg/ml [4] | % of fusion inhibition, cell-cell fusion assay, Fab at 50 µg/ml [5] | % of fusion inhibition, cell-cell fusion assay, Fab at 50 µg/ml [6] | % of fusion inhibition, cell-cell fusion assay, Fab at 50 µg/ml [7] | % of fusion inhibition, cell-cell fusion assay, Fab at 50 µg/ml [8] | % of fusion inhibition, cell-cell fusion assay, Fab at 50 µg/ml [9] | % of fusion inhibition, cell-cell fusion assay, Fab at 50 µg/ml [10] | % of fusion inhibition, cell-cell fusion assay, Fab at 50 µg/ml [11] | Concentration of Fab at the 50% neutralization endpoint, pseudovirus assay [12] | Concentration of Fab at the 50% neutralization endpoint, pseudovirus assay [13] | Concentration of Fab at the 50% neutralization endpoint, pseudovirus assay [14] | Concentration of Fab at the 50% neutralization endpoint, pseudovirus assay [15] | Concentration of Fab at the 50% neutralization endpoint, pseudovirus assay [16] | Concentration of Fab at the 50% neutralization endpoint, pseudovirus assay [17] | Concentration of Fab at the 50% neutralization endpoint, pseudovirus assay [18] | Concentration of Fab at the 50% neutralization endpoint, pseudovirus assay [19] | Kd [20] | also measured |
| --- | --- | --- | --- | --- | --- | --- | --- | --- | --- | --- | --- | --- | --- | --- | --- | --- | --- | --- | --- | --- | --- |
| Fab X5 | 34% | 27% | 83% | 36% | 72% | 45% | 19% | 43% | 28% | 93% | 71% | – | – | – | – | – | – | – | – | – | – |
| Fab m14 | 100% | 78% | 96% | 71% | 95% | 31% | 22% | 100% | 35% | 100% | 71% | 2.24 µg/mL | 100 µg/mL | > 100 µg/mL | 2.24 µg/mL | 3.1 µg/mL | 8.8 µg/mL | 50 µg/mL | > 100 µg/mL | 0.9 nM | Kd [21]: 5.4 nM; Kd [22]: 7.3 nM |
| Fab m18 | 34% | 39% | 92% | 86% | 93% | 25% | 56% | 93% | 97% | 100% | 86% | 1.6 µg/mL | > 100 µg/mL | > 100 µg/mL | < 1.6 µg/mL | 25 µg/mL | > 25 µg/mL | 25 µg/mL | > 100 µg/mL | 0.9 nM | Concentration of Fab at the 50% neutralization endpoint, pseudovirus assay [23]: 3 µg/mL; Concentration of Fab at the 50% neutralization endpoint, pseudovirus assay [24]: 100 µg/mL; Concentration of Fab at the 50% neutralization endpoint, pseudovirus assay [25]: < 2 µg/mL; Concentration of Fab at the 50% neutralization endpoint, pseudovirus assay [26]: < 2 µg/mL; Kd [21]: 1 nM; Kd [22]: 0.9 nM; Kd [27]: 0.08 nM; EC50 [28]: 1.17 nM; EC50 [29]: 0.48 nM |

Reference: US20100317837A1
